Source: paper PMC5295013

System: Gp90 D234A (DNA polymerase, exonuclease-deficient) (Pseudomonas aeruginosa phage PaP1)
Assay: SPR
Settings: SPR (Biacore 3000, SA chip, steady-state fit): 40 mM Tris-HCl pH 7.5, 10 mM DTT, 50 mM potassium glutamate, room temperature, 20-600 nM protein, ternary assays …

In the case of “TTTGCTACAGAGTTATGGTGACGATACGTC / TGAATTCTAATGTAGTATAGTAATCCGCTCTATCGGACGTATCGTCACCATAACTCTGTAGC [30-mer(dd)/62-mer G primer-template]”, the Kd (30 mM Mg2+, 1 mM dCTP (ternary complex), primer 3'-terminal dideoxycytidine (ddC, chain terminator)) is reported as 11 nM and the Kd (no Mg2+, no dNTP (binary complex), primer 3'-terminal dideoxycytidine (ddC, chain terminator)) is reported as 108 nM.

“TTTGCTACAGAGTTATGGTGACGATACGTC / TGAATTCTAATGTAGTATAGTAATCCGCTCTATCGGACGTATCGTCACCATAACTCTGTAGC [30-mer(dd)/62-mer 8-oxoG primer-template]” was tested, and the Kd (30 mM Mg2+, 1 mM dATP (ternary complex, mispair), 8-oxoG at template position 35 from 5' end (28th from 3' end, first templating base), primer 3'-terminal ddC) was 45 nM, the Kd (30 mM Mg2+, 1 mM dCTP (ternary complex), 8-oxoG at template position 35 from 5' end (28th from 3' end, first templating base), primer 3'-terminal ddC) was 34 nM and the Kd (no Mg2+, no dNTP (binary complex), 8-oxoG at template position 35 from 5' end (28th from 3' end, first templating base), primer 3'-terminal ddC) was 116 nM.
